In this assay the test system is MDA MB 231 cells. Put plainly: Apoptosis by FACS analysis (propidium iodide) in MDA MB 231 cells. Format: cell-based. The conditions noted are these: transfected with 1 μg FOG2 fragment, 2 days, FIG. 7A. On the procedure:
PI3K inactivation has been reported to cause cancer cell apoptosis, and FOG2 is known to inhibit the PI3K activity. To test whether PI3K inactivation by overexpressing FOG2 induces apoptosis, MDA MB 231 cells overexpressed FOG2 were analyzed with FACS.
MDA MB 231 cells were incubated with Full-FOG2[1-1151], FOG2[1-412], FOG2[413-789] or FOG2[802-1151]. The cells (5×10^4) were seeded in a 12-well plate and transfected with 1 μg of Full-FOG2[1-1151], FOG2[1-412], FOG2[413-789] or FOG2[802-1151] using Lipofectamine 2000. The cells were incubated at 37° C. for 2 days and subject to FACS analysis.
The cells were incubated with FOG2 fragments and fixed with 70% ethanol for 16 hr. The fixed cells were stained using RNase (5 mg/ml) and propidium iodide ([…]). The amount of DNA in stained cells was analyzed with Cell Quest program of FACS caliber (Becton Dickinson).
In general terms: Flow cytometry measures light scatter and fluorescence of single cells or particles in a stream.

These results are taken from US20130116185A1, “PHOSPHATIDYLINOSITOL 3-KINASES ACTIVITY REGULATOR INCLUDING THE FIFTH ZINC FINGER DOMAIN OF FOG2” (SNU R&DB FOUNDATION, priority 2010, published 2013).

B1: FOG2[413-789]: The FOG2 protein comprising the amino acid sequence ranging 413-789th amino acid residues of FOG2 full-length amino acid sequence (protein, UniProt Q8WW38 413-789, looked up, fragment)
chain: DLLTRSELPQSQKAMQTKDASSDTELDKCEKKTQLFLTNQRPEIQPTTNKQSFSYTKIKSEPSSPRLASSPVQPNIGPSFPVGPFLSQFSFPQDITMVPQASEILAKMSELVHRRLRHGSSSYPPVIYSPLMPKGATCFECNITFNNLDNYLVHKKHYCSSRWQQMAKSPEFPSVSEKMPEALSPNTGQTSINLLNPAAHSADPENPLLQTSCINSSTVLDLIGPNGKGHDKDFSTQTKKLSTSSNNDDKINGKPVDVKNPSVPLVDGESDPNKTTCEACNITFSRHETYMVHKQYYCATRHDPPLKRSASNKVPAMQRTMRTRKRRKMYEMCLPEQEQRPPLVQQRFLDVANLNNPCTSTQEPTEGLGECYHPRCD
In the case of B1, the “number of apoptotic cells” value was “increased”.

B2: FOG2[1-412]: Truncated FOG2 mutant in pCK-flag vector, residues 1-412 (protein, UniProt Q8WW38 1-412, looked up, fragment)
chain: MSRRKQSKPRQIKRPLEDAIEDEEEECPSEETDIISKGDFPLEESFSTEFGPENLSCEEVEYFCNKGDDEGIQETAESDGDTQSEKPGQPGVETDDWDGPGELEVFQKDGERKIQSRQQLPVGTTWGPFPGKMDLNNNSLKTKAQVPMVLTAGPKWLLDVTWQGVEDNKNNCIVYSKGGQLWCTTTKAISEGEELIAFVVDFDSRLQAASQMTLTEGMYPARLLDSIQLLPQQAAMASILPTAIVNKDIFPCKSCGIWYRSERNLQAHLMYYCSGRQREAAPVSEENEDSAHQISSLCPFPQCTKSFSNARALEMHLNSHSGVKMEEFLPPGASLKCTVCSYTADSVINFHQHLFSHLTQAAFRCNHCHFGFQTQRELLQHQELHVPSGKLPRESDMEHSPSATEDSLQPAT
modifications: FLAG tag
For the molecule B2, the “number of apoptotic cells” value is “reduces the apoptosis”.
